US20150080245A1 (CATHOLIC UNIVERSITY INDUSTRY ACADEMIC COOPERATION FOUNDATION, published 2015)

Molecular target: T1, cyclic citrullinated peptide (CCP) derived from filaggrin (X stands for citrulline (9th residue of HQCHQESTXGRSRGRCGRSGS); a chemical bond between the two underlined Cs (cyclic))
T1 construct: Synthesized peptide, coated on ELISA plates at 250 ng/well; also called Filaggrin-derived CCP; CCP peptide
T1 peptide: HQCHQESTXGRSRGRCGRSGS
Experiment: ELISA, coated CCP peptide, hybridoma supernatant diluted 1:1000
Experimental: For hybridoma selection, each of the CCP peptide and the CRP peptide, both previously prepared, was diluted to a final concentration of 250 ng/well in PBS or a carbonate buffer. The dilution was allocated in an amount of 50 μl into 96-well plates and incubated for 2 hrs at room temperature or overnight at 4° C. Each well was washed with 200 μl of PBS. To this end, the plates were overturned to decant the solution out of all the wells, and then struck down against paper towel to completely remove the remaining solution. […] After 30 min of the incubation, the color development was terminated with a stop solution, and color intensity to was immediately measured at 450 nm in a single point photo mode. […]
Repeated screening of the hybridoma cells against CCP and CRP left two clones 11G1 and 12G1 in the final stage (FIGS. 7 and 8). FIGS. 6 to 8 list binding intensities of anti-CCP antibodies when they recognized and bound to the target peptide CCP in each screening stage of the hybridomas, as measured by absorbance at 450 nm. […] With reference made to these marked values, how effectively each hybridoma clone produced an anti-CCP antibody was analyzed, and selection was made of effective clones which were then cultured many times so that the effective clones producing anti-CCP antibodies only predominated over other clones.

- binding result: binds
B1: monoclonal antibody 12G1 produced from the 12G1 hybridoma cell line (accession No. KCLRF-BP-00276) (antibody, V domains shown)
VH: EVKLEESGAELVRPGTSVKISCKASGYGFTNYWLGWIKQRPGHGLEWIGDVYPGSGNTYYNEKFKGKATLTADKSSSTVYMQLSSLTSEDSTVYFCAREGGITTAPYPFGYWGQGTLVTVSA
VL: DIVMTQTPSSMYASLGERVTITCKASQDINSYLSWFQQKPGKSPKTLIYRANRLVDGVPSRFSGSGSGQDYSLTISSLEYEDMGIYYCLQYDEFPWTFGGGTKLEIK
notes: Mouse monoclonal antibody from a hybridoma, detected with anti-mouse IgG; Used as hybridoma supernatant or as purified antibody; also called 12G1 antibody
